Results published in patent US20240261378.

Target: TRIM16 GST-fusion protein (substrate of the ULK1 kinase assay)

B1: Flag-ULK1 wt (protein)
chain: MEPGRGGTETVGKFEFSRKDLIGHGAFAVVFKGRHREKHDLEVAVKCINKKNLAKSQTLLGKEIKILKELKHENIVALYDFQEMANSVYLVMEYCNGGDLADYLHAMRTLSEDTIRLFLQQIAGAMRLLHSKGIIHRDLKPQNILLSNPAGRRANPNSIRVKIADFGFARYLQSNMMAATLCGSPMYMAPEVIMSQHYDGKADLWSIGTIVYQCLTGKAPFQASSPQDLRLFYEKNKTLVPTIPRETSAPLRQLLLALLQRNHKDRMDFDEFFHHPFLDASPSVRKSPPVPVPSYPSSGSGSSSSSSSTSHLASPPSLGEMQQLQKTLASPADTAGFLHSSRDSGGSKDSSCDTDDFVMVPAQFPGDLVAEAPSAKPPPDSLMCSGSSLVASAGLESHGRTPSPSPPCSSSPSPSGRAGPFSSSRCGASVPIPVPTQVQNYQRIERNLQSPTQFQTPRSSAIRRSGSTSPLGFARASPSPPAHAEHGGVLARKMSLGGGRPYTPSPQVGTIPERPGWSGTPSPQGAEMRGGRSPRPGSSAPEHSPRTSGLGCRLHSAPNLSDLHVVRPKLPKPPTDPLGAVFSPPQASPPQPSHGLQSCRNLRGSPKLPDFLQRNPLPPILGSPTKAVPSFDFPKTPSSQNLLALLARQGVVMTPPRNRTLPDLSEVGPFHGQPLGPGLRPGEDPKGPFGRSFSTSRLTDLLLKAAFGTQAPDPGSTESLQEKPMEIAPSAGFGGSLHPGARAGGTSSPSPVVFTVGSPPSGSTPPQGPRTRMFSAGPTGSASSSARHLVPGPCSEAPAPELPAPGHGCSFADPITANLEGAVTFEAPDLPEETLMEQEHTEILRGLRFTLLFVQHVLEIAALKGSASEAAGGPEYQLQESVVADQISLLSREWGFAEQLVLYLKVAELLSSGLQSAIDQIRAGKLCLSSTVKQVVRRLNELYKASVVSCQGLSLRLQRFFLDKQRLLDRIHSITAERLIFSHAVQMVQSAALDEMFQHREGCVPRYHKALLLLEGLQHMLSDQADIENVTKCKLCIERRLSALLTGICA
in vitro phosphorylation (γ32P ATP, autoradiography), wt vs kinase-dead K46I ULK1: comparing active vs. kinase dead ULK1 we established that TRIM16 was a substrate for ULK1 phosphorylation
